Test results reported in patent publication US20240261333A1 (published 2024).

T1: NCCRP1 (UniProt Q6ZVX7 1-275)
T1 construct: also called NP_001001414.1
T1 sequence (looked up): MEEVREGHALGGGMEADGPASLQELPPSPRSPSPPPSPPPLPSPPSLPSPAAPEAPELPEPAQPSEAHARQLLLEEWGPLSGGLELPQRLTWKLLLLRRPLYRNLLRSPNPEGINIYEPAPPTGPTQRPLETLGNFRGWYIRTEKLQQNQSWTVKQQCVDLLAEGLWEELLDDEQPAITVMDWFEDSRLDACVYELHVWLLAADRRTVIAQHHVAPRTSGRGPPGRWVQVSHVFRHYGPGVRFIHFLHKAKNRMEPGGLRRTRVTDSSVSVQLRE

T2: DDX20 (UniProt Q9UHI6 1-824)
T2 construct: also called NP_009135.4
T2 sequence (looked up): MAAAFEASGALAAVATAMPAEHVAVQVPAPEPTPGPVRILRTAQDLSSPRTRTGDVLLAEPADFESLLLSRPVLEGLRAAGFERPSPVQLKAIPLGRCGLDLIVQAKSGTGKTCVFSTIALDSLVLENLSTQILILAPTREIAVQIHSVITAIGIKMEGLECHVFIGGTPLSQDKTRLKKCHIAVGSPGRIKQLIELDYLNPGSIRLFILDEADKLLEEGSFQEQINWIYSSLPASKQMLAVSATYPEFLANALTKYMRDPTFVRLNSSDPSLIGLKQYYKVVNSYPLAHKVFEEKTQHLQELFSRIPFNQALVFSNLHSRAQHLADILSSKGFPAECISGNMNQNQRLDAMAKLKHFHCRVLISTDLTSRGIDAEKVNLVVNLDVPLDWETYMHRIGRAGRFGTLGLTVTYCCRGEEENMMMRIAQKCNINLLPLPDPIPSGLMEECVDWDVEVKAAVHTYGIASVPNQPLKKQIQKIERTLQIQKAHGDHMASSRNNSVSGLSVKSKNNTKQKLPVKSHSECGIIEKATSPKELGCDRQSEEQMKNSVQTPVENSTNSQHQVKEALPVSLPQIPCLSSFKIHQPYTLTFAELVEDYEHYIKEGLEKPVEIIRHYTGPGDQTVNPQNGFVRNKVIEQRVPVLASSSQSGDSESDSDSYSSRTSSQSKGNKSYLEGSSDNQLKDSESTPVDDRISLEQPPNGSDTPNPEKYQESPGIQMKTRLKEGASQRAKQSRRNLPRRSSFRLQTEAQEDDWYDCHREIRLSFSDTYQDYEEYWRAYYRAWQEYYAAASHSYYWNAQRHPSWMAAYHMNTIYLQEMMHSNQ


Experiments:
NCCRP1 = molecular target: T1, NCCRP1; experiment: co-IP, anti-FLAG, N-FLAG B3GNT2 cell lysate, mass spectrometry
Method: (§1) Cells were plated in 10-cm cell culture dishes and grown to 60-80% confluency. For each condition, two biological replicates were harvested for co-IP. Cells were washed with PBS and 4 mL of lysis buffer (20 mM HEPES, 1% Triton X-100, 150 mM NaCl, 1 mM EDTA, and 10% glycerol) containing protease inhibitor cocktail was added. Cells were scraped and lysate was incubated at 4° C. under rotary agitation for 1 h. Lysate was centrifuged at 14,000×g for 10 min at 4° C. Supernatant was transferred to a new tube and an aliquot was taken as the input. […] For Western blots, 10 μg/mL Chicken Anti-FLAG (Aves labs ET-DY100) and IgY control (R&D Systems AB-101-C) antibodies were biotinylated (Thermo Fisher Scientific 90407) and added to the respective conditions. Lysates with antibodies were incubated at 4° C. under rotary agitation overnight. For each mL of lysate, 50 μL of Pierce Protein A/G Magnetic Beads (Mass spectrometry; Thermo Fisher Scientific 88803) or Pierce Streptavidin Magnetic Beads (Western blot; Thermo Fisher Scientific 88817) was washed twice with lysis buffer. Lysates with antibodies were added to the beads and incubated at 4° C. under rotary agitation for 4 h. Beads were washed with lysis buffer 3 times and resuspended in lysis buffer for storage.
(§2) Magnetic beads were resuspended in 100 mM Tris pH 7.8, reduced, alkylated and digested with trypsin at 37° ° C. overnight. This solution was subjected to solid phase extraction to concentrate the peptides and remove unwanted reagents followed by injection onto a Shimadzu HPLC with fraction collector. Eight fractions were collected and after concentration were injected on a Waters NanoAcquity HPLC equipped with a self-packed Aeris 3 μm C18 analytical column 0.075 mm by 20 cm, (Phenomenex). Peptides were eluted using standard reverse-phase gradients. The effluent from the column was analyzed using a Thermo Orbitrap Elite mass spectrometer (nanospray configuration) operated in a data dependent manner for 54 minutes. The resulting fragmentation spectra were correlated against the known database using Proteome Discover 1.4 (Thermo Fisher Scientific).

HSPB1 = molecular target: T3, HSPB1 (UniProt P04792 1-205); experiment: as above
T3 construct: also called NP_001531.1
Method: as §1, §2

RPL37A = RPL37A (UniProt P61513 1-92); experiment: as above
Method: as §1, §2

DDX20 = molecular target: T2, DDX20; experiment: as above
Method: as §1, §2

SSRP1 = molecular target: T4, SSRP1 (UniProt Q08945 2-709); experiment: as above
T4 construct: also called NP_003137.1 (+3)
Method: as §1, §2

HNRNPU = molecular target: T5, HNRNPU (UniProt Q00839 2-825); experiment: as above
T5 construct: also called NP_114032.2
Method: as §1, §2

RPL22 = RPL22 (UniProt P35268 2-128); experiment: as above
Method: as §1, §2

MYH11 = molecular target: T6, MYH11 (human, UniProt P35749-3 1-1945, limits assumed); experiment: co-IP, anti-FLAG, lysate of cells with N-FLAG B3GNT2; mass spectrometry
T6 construct: also called NP_001035202.1 (+4)
Method: as §1, §2

PRBP1 = molecular target: T7, PRBP1 (human, UniProt P26599 1-557); experiment: as above
T7 construct: Label 'PRBP1' is probably a misprint of PTBP1; also called NP_002810.1 (+4)
Method: as §1, §2

HNRNPA2B1 = molecular target: T8, HNRNPA2B1 (human, UniProt P22626-2 1-341); experiment: as above
T8 construct: also called NP_002128.1 (+1)
Method: as §1, §2

RPS28 = RPS28 (human, UniProt P62857 1-69); experiment: as above
Method: as §1, §2

T8 sequence (P22626 other isoform, or with tags, fused parts or gaps limits assumed): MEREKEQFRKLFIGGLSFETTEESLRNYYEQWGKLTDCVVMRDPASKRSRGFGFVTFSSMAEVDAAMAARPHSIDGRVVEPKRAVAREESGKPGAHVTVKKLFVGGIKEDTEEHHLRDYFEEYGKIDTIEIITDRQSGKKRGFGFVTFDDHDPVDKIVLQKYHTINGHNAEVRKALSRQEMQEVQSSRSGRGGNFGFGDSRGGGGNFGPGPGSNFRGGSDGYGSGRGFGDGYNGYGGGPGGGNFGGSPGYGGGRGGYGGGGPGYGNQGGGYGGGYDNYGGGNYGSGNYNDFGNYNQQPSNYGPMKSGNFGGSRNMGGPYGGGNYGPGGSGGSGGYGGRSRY
T4 sequence (Q08945 2-709 limits assumed): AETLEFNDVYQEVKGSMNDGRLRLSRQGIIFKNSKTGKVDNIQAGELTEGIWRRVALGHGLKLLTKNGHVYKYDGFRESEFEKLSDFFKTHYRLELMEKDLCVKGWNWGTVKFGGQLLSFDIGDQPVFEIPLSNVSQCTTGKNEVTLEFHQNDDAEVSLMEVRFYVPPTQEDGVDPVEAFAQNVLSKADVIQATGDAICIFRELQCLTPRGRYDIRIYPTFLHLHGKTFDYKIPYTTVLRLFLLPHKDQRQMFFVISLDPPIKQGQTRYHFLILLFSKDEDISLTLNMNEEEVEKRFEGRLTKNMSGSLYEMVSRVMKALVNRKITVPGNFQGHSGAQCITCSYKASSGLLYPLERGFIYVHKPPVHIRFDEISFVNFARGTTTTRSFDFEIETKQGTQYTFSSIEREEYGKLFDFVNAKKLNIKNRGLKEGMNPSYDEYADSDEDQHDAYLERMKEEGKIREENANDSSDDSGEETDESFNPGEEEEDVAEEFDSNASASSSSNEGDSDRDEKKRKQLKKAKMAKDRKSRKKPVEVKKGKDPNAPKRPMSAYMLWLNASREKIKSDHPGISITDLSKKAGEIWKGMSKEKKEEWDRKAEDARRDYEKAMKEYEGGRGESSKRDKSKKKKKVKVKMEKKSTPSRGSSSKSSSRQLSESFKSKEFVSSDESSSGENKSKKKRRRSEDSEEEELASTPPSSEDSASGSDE
T6 sequence (P35749 other isoform, or with tags, fused parts or gaps limits assumed): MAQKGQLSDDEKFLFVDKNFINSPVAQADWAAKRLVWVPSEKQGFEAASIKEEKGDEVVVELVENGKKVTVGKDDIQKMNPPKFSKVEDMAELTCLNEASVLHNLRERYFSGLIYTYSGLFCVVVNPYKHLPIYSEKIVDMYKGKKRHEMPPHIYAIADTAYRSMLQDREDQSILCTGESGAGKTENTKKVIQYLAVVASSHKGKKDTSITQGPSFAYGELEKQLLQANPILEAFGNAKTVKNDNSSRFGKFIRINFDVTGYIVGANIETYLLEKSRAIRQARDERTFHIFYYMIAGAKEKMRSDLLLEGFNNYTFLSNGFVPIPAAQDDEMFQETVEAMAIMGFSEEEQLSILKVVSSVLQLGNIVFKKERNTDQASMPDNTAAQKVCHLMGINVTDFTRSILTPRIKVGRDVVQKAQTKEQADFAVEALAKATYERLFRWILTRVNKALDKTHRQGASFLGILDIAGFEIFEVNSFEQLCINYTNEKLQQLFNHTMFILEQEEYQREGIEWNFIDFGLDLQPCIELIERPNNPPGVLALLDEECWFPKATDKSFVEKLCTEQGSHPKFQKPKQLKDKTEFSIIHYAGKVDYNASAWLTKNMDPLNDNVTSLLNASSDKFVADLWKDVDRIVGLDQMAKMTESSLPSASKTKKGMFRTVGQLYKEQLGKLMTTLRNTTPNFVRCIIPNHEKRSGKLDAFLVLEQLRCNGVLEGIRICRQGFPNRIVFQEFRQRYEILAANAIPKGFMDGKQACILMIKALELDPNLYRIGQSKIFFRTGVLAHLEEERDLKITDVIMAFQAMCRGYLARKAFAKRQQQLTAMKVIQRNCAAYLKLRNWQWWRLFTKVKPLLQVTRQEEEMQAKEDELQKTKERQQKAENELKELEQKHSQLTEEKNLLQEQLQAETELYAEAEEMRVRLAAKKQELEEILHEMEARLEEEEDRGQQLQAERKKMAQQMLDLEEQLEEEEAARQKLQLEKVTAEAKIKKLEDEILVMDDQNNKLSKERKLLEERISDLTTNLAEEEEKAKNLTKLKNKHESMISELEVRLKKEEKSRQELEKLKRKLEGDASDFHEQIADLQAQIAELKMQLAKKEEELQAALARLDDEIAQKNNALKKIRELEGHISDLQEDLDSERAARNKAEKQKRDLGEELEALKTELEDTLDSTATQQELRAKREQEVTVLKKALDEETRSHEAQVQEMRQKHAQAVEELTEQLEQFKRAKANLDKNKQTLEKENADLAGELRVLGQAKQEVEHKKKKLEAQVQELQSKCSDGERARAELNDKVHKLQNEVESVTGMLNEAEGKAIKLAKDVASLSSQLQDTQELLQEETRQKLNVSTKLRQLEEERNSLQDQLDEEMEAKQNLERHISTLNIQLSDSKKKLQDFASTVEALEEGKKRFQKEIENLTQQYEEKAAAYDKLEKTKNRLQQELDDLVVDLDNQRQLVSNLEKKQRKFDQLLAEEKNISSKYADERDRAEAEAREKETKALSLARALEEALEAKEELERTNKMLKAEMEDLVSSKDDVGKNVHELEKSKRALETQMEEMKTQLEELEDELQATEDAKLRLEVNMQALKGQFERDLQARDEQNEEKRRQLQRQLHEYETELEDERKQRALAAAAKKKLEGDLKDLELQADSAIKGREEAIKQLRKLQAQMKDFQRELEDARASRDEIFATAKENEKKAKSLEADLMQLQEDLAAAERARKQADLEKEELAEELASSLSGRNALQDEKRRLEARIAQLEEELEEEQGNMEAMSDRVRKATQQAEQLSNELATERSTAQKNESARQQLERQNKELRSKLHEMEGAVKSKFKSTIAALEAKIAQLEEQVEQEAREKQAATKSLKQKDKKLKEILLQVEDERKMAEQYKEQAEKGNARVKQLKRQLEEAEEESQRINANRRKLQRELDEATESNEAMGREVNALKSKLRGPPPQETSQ
T5 sequence (Q00839 2-825 limits assumed): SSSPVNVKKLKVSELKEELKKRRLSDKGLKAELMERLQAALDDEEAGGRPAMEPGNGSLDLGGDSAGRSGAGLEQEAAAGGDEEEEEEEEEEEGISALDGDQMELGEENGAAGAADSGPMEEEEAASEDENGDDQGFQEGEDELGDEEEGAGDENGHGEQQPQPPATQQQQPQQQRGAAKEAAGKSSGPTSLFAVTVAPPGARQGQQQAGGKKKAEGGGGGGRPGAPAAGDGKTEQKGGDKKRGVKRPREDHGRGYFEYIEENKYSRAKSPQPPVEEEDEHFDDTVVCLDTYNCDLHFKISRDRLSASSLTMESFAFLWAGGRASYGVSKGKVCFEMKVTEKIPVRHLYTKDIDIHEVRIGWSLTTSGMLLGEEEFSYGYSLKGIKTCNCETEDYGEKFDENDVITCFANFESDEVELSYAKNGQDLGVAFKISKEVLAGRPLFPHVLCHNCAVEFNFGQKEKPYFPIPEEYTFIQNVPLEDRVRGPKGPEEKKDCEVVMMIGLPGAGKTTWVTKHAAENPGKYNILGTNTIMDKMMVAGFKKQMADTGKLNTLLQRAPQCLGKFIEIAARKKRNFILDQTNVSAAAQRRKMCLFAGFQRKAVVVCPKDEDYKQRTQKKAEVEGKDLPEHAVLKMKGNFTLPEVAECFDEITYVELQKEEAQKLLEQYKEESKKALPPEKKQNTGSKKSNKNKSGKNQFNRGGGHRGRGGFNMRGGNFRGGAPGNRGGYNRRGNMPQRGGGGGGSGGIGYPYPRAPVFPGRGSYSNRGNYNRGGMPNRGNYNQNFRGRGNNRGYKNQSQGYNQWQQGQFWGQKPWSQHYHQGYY
T7 sequence (P26599 whole entry): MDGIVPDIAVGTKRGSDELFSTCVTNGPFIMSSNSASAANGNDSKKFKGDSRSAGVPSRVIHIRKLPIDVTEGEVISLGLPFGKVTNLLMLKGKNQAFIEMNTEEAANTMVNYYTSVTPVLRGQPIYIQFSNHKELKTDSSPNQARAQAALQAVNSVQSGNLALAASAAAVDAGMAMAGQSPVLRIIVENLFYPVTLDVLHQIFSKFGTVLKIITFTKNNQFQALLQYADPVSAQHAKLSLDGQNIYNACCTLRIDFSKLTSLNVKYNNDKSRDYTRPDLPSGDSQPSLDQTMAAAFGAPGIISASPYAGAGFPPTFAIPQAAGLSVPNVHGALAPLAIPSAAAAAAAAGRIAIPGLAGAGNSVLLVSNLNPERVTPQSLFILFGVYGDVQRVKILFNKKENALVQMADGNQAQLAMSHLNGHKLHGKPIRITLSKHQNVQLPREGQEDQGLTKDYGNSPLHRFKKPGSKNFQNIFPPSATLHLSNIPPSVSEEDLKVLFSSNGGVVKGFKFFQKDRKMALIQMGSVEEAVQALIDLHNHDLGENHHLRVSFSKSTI
T3 sequence (P04792 whole entry): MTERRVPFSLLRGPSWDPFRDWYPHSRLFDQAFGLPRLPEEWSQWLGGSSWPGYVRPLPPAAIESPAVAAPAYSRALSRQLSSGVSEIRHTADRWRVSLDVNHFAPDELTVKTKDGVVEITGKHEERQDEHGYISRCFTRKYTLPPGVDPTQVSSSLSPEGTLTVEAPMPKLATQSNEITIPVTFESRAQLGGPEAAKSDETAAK

co-IP mass spectrometry count (NCCRP1)	co-IP mass spectrometry count (HSPB1)	co-IP mass spectrometry count (RPL37A)	co-IP mass spectrometry count (DDX20)	co-IP mass spectrometry count (SSRP1)	co-IP mass spectrometry count (HNRNPU)	co-IP mass spectrometry count (RPL22)	co-IP mass spectrometry count (MYH11)	co-IP mass spectrometry count (PRBP1)	co-IP mass spectrometry count (HNRNPA2B1)	co-IP mass spectrometry count (RPS28)	Binder
4	3	6	0	0	0	0					N-terminal FLAG tagged B3GNT2 (enzyme, human, UniProt Q9NY97 1-397, looked up, Bait of the co-IP; pulled down with mouse anti-FLAG from cell lysate; also called N-FLAG B3GNT2; N-term FLAG; not shown: FLAG tag at the N-terminus) MSVGRRRIKLLGILMMANVFIYFIMEVSKSSSQEKNGKGEVIIPKEKFWKISTPPEAYWNREQEKLNRQYNPILSMLTNQTGEAGRLSNISHLNYCEPDLRVTSVVTGFNNLPDRFKDFLLYLRCRNYSLLIDQPDKCAKKPFLLLAIKSLTPHFARRQAIRESWGQESNAGNQTVVRVFLLGQTPPEDNHPDLSDMLKFESEKHQDILMWNYRDTFFNLSLKEVLFLRWVSTSCPDTEFVFKGDDDVFVNTHHILNYLNSLSKTKAKDLFIGDVIHNAGPHRDKKLKYYIPEVVYSGLYPPYAGGGGFLYSGHLALRLYHITDQVHLYPIDDVYTGMCLQKLGLVPEKHKGFRTFDIEEKNKNNICSYVDLMLVHSRKPQEMIDIWSQLQSAHLKC
							2	6	7	0	N-terminal FLAG tagged B3GNT2 (enzyme, human, UniProt Q9NY97 1-397, looked up, Overexpressed in cells and pulled down from the lysate with mouse anti-FLAG antibody; also called N-FLAG B3GNT2; N-term FLAG; not shown: N-terminal FLAG tag) MSVGRRRIKLLGILMMANVFIYFIMEVSKSSSQEKNGKGEVIIPKEKFWKISTPPEAYWNREQEKLNRQYNPILSMLTNQTGEAGRLSNISHLNYCEPDLRVTSVVTGFNNLPDRFKDFLLYLRCRNYSLLIDQPDKCAKKPFLLLAIKSLTPHFARRQAIRESWGQESNAGNQTVVRVFLLGQTPPEDNHPDLSDMLKFESEKHQDILMWNYRDTFFNLSLKEVLFLRWVSTSCPDTEFVFKGDDDVFVNTHHILNYLNSLSKTKAKDLFIGDVIHNAGPHRDKKLKYYIPEVVYSGLYPPYAGGGGFLYSGHLALRLYHITDQVHLYPIDDVYTGMCLQKLGLVPEKHKGFRTFDIEEKNKNNICSYVDLMLVHSRKPQEMIDIWSQLQSAHLKC
